Measurements as given in article PMC9389042, “Atypical IκB Bcl3 enhances the generation of the NF-κB p52 homodimer” (Frontiers in Cell and Developmental Biology, 2022).
Values belong to the binder of their own block, whether it stands above or below them.

What was measured:
[1] = biological target: T1, Recombinant non-tagged human p52 (1-398) (human, UniProt Q00653 1-398); assay: BLI; p52:p52 homodimer
T1 chain: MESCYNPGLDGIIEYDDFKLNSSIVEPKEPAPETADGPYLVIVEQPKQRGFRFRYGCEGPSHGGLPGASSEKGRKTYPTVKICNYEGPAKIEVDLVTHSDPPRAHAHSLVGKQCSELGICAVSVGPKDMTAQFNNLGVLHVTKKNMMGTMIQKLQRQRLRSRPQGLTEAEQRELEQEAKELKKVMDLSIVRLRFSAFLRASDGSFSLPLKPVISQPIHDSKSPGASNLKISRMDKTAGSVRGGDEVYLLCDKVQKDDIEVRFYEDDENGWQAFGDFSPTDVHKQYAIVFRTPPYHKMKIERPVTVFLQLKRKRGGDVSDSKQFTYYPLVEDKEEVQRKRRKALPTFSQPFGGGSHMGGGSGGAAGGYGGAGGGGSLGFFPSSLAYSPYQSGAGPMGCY

[2] = biological target: T2, Recombinant non-tagged human p50 (1-435) (human, UniProt P19838 1-435); assay: BLI; p50:p50 homodimer
T2 chain: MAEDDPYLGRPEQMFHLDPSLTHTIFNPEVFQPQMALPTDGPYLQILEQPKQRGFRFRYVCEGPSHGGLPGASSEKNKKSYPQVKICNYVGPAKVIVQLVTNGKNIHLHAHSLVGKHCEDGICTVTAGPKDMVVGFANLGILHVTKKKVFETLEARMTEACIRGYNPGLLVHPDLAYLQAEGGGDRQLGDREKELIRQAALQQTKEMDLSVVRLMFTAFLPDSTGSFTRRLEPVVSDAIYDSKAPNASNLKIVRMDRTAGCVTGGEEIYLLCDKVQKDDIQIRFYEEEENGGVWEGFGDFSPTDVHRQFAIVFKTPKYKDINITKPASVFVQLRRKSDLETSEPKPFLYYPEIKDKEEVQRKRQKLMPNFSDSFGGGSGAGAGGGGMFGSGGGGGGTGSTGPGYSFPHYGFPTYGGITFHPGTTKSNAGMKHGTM

[3] = biological target: T2, Recombinant non-tagged human p50 (1-435); assay: BLI; p50:p50 homodimer
[4] = biological target: T2, Recombinant non-tagged human p50 (1-435); assay: BLI; p50:p50 homodimer; duplicate experiment
[5] = biological target: T1, Recombinant non-tagged human p52 (1-398); assay: BLI; p52:p52 homodimer; duplicate experiment
[6] = biological target: T1, Recombinant non-tagged human p52 (1-398); assay: BLI; p52:p52 homodimer; duplicate experiment
[7] = biological target: T1, Recombinant non-tagged human p52 (1-398); assay: BLI; p52:p52 homodimer
[8] = biological target: T2, Recombinant non-tagged human p50 (1-435); assay: BLI; p50:p50 homodimer; duplicate experiment
[9] = biological target: T3, p52 (1-341) fused to a BiFC fragment (human, UniProt Q00653 1-341); assay: split reporter (BiFC, NanoBiT); multicolor BiFC: three BiFC constructs (VN, CC, CN) co-expressed in HEK 293T cells so that two dimers compete, with or without co-expressed Bcl3 or RelB; cells fixed with methanol 48 h after transfection; Venus and Cerulean intensity as percent of the two-construct reference; conditions: partners not purified
T3 construct: NF-kappaB p52 (processed product of NF-kappaB2/p100), rel homology region, residues 1-341; Three constructs that differ only in the fluorescent-protein fragment are written as one molecule; The methods give limits for p52-VN and p52-CC only; also called p52-VN; p52-CC; not shown: BiFC fragment behind a (GGGGS)2 linker (Venus 1-172 in p52-VN; Cerulean 155-238 in p52-CC; N-terminal fragment of …)
T3 sequence (looked up): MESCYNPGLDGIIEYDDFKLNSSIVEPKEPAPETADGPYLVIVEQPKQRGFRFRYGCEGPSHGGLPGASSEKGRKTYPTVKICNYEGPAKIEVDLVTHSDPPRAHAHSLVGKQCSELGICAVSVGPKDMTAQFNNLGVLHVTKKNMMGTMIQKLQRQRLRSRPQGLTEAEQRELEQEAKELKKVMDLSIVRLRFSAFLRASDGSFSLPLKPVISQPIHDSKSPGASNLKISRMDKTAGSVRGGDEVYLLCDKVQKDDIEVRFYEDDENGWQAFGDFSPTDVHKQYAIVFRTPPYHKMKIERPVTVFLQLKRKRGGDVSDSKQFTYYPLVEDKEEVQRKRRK

koff [1]: 0.000393 s⁻¹ | koff [2]: 0.000354 s⁻¹ | Kd [3]: 6.87 nM | koff [4]: 0.00033 s⁻¹ | Kd [5]: 2.4 nM | koff [6]: 0.000323 s⁻¹ | Kd [7]: 3.12 nM | Kd [8]: 6.56 nM
B1: His-Bcl3(1-446) (natural protein)
chain: MDEGPVDLRTRPKAAGLPGAALPLRKRPLRAPSPEPAAPRGAAGLVVPLDPLRGGCDLPAVPGPPHGLARPEALYYPGALLPLYPTRAMGSPFPLVNLPTPLYPMMCPMEHPLSADIAMATRADEDGDTPLHIAVVQGNLPAVHRLVNLFQQGGRELDIYNNLRQTPLHLAVITTLPSVVRLLVTAGASPMALDRHGQTAAHLACEHRSPTCLRALLDSAAPGTLDLEARNYDGLTALHVAVNTECQETVQLLLERGADIDAVDIKSGRSPLIHAVENNSLSMVQLLLQHGANVNAQMYSGSSALHSASGRGLLPLVRTLVRSGADSSLKNCHNDTPLMVARSRRVIDILRGKATRPASTSQPDPSPDRSANTSPESSSRLSSNGLLSASPSSSPSQSPPRDPPGFPMAPPNFFLPSPSPPAFLPFAGVLRGPGRPVPPSPAPGGS

fold more stable than the p52:p52 homodimer (BiFC fluorescence, without Bcl3) [9]: ~20 fold
B2: RelB (1-400) fused to a BiFC fragment (domain or fragment, UniProt Q04863 1-400, looked up)
chain: MPSRRAARESAPELGALGSSDLSSLSLTVSRTTDELEIIDEYIKENGFGLDGTQLSEMPRLVPRGPASLSSVTLGPAAPPPPATPSWSCTLGRLVSPGPCPRPYLVITEQPKQRGMRFRYECEGRSAGSILGESSTEASKTLPAIELRDCGGLREVEVTACLVWKDWPHRVHPHSLVGKDCTDGVCRVRLRPHVSPRHSFNNLGIQCVRKKEIEAAIERKIQLGIDPYNAGSLKNHQEVDMNVVRICFQASYRDQQGHLHRMDPILSEPVYDKKSTNTSELRICRINKESGPCTGGEELYLLCDKVQKEDISVVFSTASWEGRADFSQADVHRQIAIVFKTPPYEDLEISEPVTVNVFLQRLTDGVCSEPLPFTYLPRDHDSYGVDKKRKRGLPDVLGEL
notes: RelB, rel homology region, residues 1-400; Three constructs that differ only in the fluorescent-protein fragment are written as one molecule; The methods give limits for RelB-CN only; also called RelB-CN; RelB-VN; not shown: BiFC fragment behind a (GGGGS)2 linker (Cerulean 1-172 in RelB-CN; N-terminal fragment of Venus in RelB-VN; C-terminal fragment of Cerulean in RelB-CC; one for each …)
